Test results taken from the supplement of paper PMC11246515.
± gives the standard deviation of the averaged measurements.

Assay: total protein half-life in vivo (active degradation + dilution); higher = more stable protein
[1] = E. coli NCM3722 delta-clpP delta-lon delta-hslV, growth: N-lim chemostat, doubling time 6 h
[2] = E. coli NCM3722 delta-clpP, growth: N-lim chemostat, doubling time 6 h
[3] = E. coli NCM3722 delta-hslV, growth: N-lim chemostat, doubling time 6 h
[4] = E. coli NCM3722 delta-lon, growth: N-lim chemostat, doubling time 6 h
[5] = E. coli NCM3722 delta-smpB, growth: N-lim chemostat, doubling time 6 h
[6] = wild type E. coli NCM3722, growth: C-lim chemostat, doubling time 3 h
[7] = wild type E. coli NCM3722, growth: C-lim chemostat, doubling time 6 h
[8] = wild type E. coli NCM3722, growth: C-lim chemostat, doubling time 12 h
[9] = wild type E. coli NCM3722, growth: N-lim chemostat, doubling time 6 h
[10] = wild type E. coli NCM3722, growth: N-lim chemostat, doubling time 12 h
[11] = wild type E. coli NCM3722, growth: P-lim chemostat, doubling time 6 h
[12] = wild type E. coli NCM3722, growth: P-lim chemostat, doubling time 12 h

Sequence: MIVKKLTLPKDFLWGGAVAAHQVEGGWNKGGKGPSICDVLTGGAHGVPREITKEVLPGKYYPNHEAVDFYGHYKEDIKLFAEMGFKCFRTSIAWTRIFPKGDEAQPNEEGLKFYDDMFDELLKYNIEPVITLSHFEMPLHLVQQYGSWTNRKVVDFFVRFAEVVFERYKHKVKYWMTFNEINNQRNWRAPLFGYCCSGVVYTEHENPEETMYQVLHHQFVASALAVKAARRINPEMKVGCMLAMVPLYPYSCNPDDVMFAQESMRERYVFTDVQLRGYYPSYVLNEWERRGFNIKMEDGDLDVLREGTCDYLGFSYYMTNAVKAEGGTGDAISGFEGSVPNPYVKASDWGWQIDPVGLRYALCELYERYQRPLFIVENGFGAYDKVEEDGSINDDYRIDYLRAHIEEMKKAVTYDGVDLMGYTPWGCIDCVSFTTGQYSKRYGFIYVNKHDDGTGDMSRSRKKSFNWYKEVIASNGEKL
- total protein half-life in vivo [1]: 5.79 ± 0.69 h
- total protein half-life in vivo [2]: 5.12 ± 0.34 h
- total protein half-life in vivo [3]: 5.44 ± 0.26 h
- total protein half-life in vivo [4]: 5.46 ± 0.0062 h
- total protein half-life in vivo [5]: 4.985 ± 0.0067 h
- total protein half-life in vivo [6]: 3.08 ± 0.12 h
- total protein half-life in vivo [7]: 5.89 ± 0.32 h
- total protein half-life in vivo [8]: 10.03 ± 0.031 h
- total protein half-life in vivo [9]: 4.85 ± 0.075 h
- total protein half-life in vivo [10]: 9.46 ± 0.4 h
- total protein half-life in vivo [11]: 6.17 ± 0.47 h
- total protein half-life in vivo [12]: 11.1 ± 0.41 h

Sequence: MHCPFCFAVDTKVIDSRLVGEGSSVRRRRQCLVCNERFTTFEVAELVMPRVVKSNDVREPFNEEKLRSGMLRALEKRPVSSDDVEMAINHIKSQLRATGEREVPSKMIGNLVMEQLKKLDKVAYIRFASVYRSFEDIKEFGEEIARLED [P0A8D0]
- total protein half-life in vivo [1]: 6.05 ± 0.84 h
- total protein half-life in vivo [2]: 5.91 ± 0.41 h
- total protein half-life in vivo [3]: 4.362 ± 0.017 h
- total protein half-life in vivo [5]: 4 ± 0.71 h
- total protein half-life in vivo [6]: 2.98 ± 1.4 h
- total protein half-life in vivo [7]: 4.6 ± 0.41 h
- total protein half-life in vivo [8]: 9.06 ± 0.4 h
- total protein half-life in vivo [9]: 4.15 ± 0.58 h
- total protein half-life in vivo [10]: 6.44 ± 0.094 h
- total protein half-life in vivo [11]: 4.677 ± 0.038 h
- total protein half-life in vivo [12]: 10.76 ± 0.082 h

Sequence: MGNNVVVLGTQWGDEGKGKIVDLLTERAKYVVRYQGGHNAGHTLVINGEKTVLHLIPSGILRENVTSIIGNGVVLSPAALMKEMKELEDRGIPVRERLLLSEACPLILDYHVALDNAREKARGAKAIGTTGRGIGPAYEDKVARRGLRVGDLFDKETFAEKLKEVMEYHNFQLVNYYKAEAVDYQKVLDDTMAVADILTSMVVDVSDLLDQARQRGDFVMFEGAQGTLLDIDHGTYPYVTSSNTTAGGVATGSGLGPRYVDYVLGILKAYSTRVGAGPFPTELFDETGEFLCKQGNEFGATTGRRRRTGWLDTVAVRRAVQLNSLSGFCLTKLDVLDGLKEVKLCVAYRMPDGREVTTTPLAADDWKGVEPIYETMPGWSESTFGVKDRSGLPQAALNYIKRIEELTGVPIDIISTGPDRTETMILRDPFDA [P0A7D4]
- total protein half-life in vivo [1]: 4.49 ± 0.41 h
- total protein half-life in vivo [2]: 4.35 ± 0.28 h
- total protein half-life in vivo [3]: 4.567 ± 0.026 h
- total protein half-life in vivo [4]: 4.73 ± 0.3 h
- total protein half-life in vivo [5]: 4.3 ± 0.15 h
- total protein half-life in vivo [6]: 3.04 ± 0.093 h
- total protein half-life in vivo [7]: 5.86 ± 0.3 h
- total protein half-life in vivo [8]: 10.4 ± 1.6 h
- total protein half-life in vivo [9]: 4.39 ± 0.098 h
- total protein half-life in vivo [10]: 7.26 ± 0.18 h
- total protein half-life in vivo [11]: 6.09 ± 0.23 h
- total protein half-life in vivo [12]: 10.6 ± 0.72 h

Sequence: MTRYQHLATLLAERIEQGLYRHGEKLPSVRSLSQEHGVSISTVQQAYQTLETMKLITPQPRSGYFVAQRKAQPPVPPMTRPVQRPVEITQWDQVLDMLEAHSDSSIVPLSKSTPDVEAPSLKPLWRELSRVVQHNLQTVLGYDLLAGQRVLREQIARLMLDSGSVVTADDIIITSGCHNSMSLALMAVCKPGDIVAVESPCYYGSMQMLRGMGVKVIEIPTDPETGISVEALELALEQWPIKGIILVPNCNNPLGFIMPDARKRAVLSLAQRHDIVIFEDDVYGELATEYPRPRTIHSWDIDGRVLLCSSFSKSIAPGLRVGWVAPGRYHDKLMHMKYAISSFNVPSTQMAAATFVLEGHYHRHIRRMRQIYQRNLALYTCWIREYFPCEICITRPKGGFLLWIELPEQVDMVCVARQLCRMKIQVAAGSIFSASGKYRNCLRINCALPLSETYREALKQIGEAVYRAME
- total protein half-life in vivo [1]: 6.94 ± 1 h
- total protein half-life in vivo [2]: 3.72 ± 0.22 h
- total protein half-life in vivo [3]: 2.89 h
- total protein half-life in vivo [5]: 2.79 ± 0.039 h
- total protein half-life in vivo [6]: 3.04 ± 0.04 h
- total protein half-life in vivo [7]: 4.58 ± 0.076 h
- total protein half-life in vivo [8]: 7.69 ± 0.59 h
- total protein half-life in vivo [9]: 3.09 ± 0.11 h
- total protein half-life in vivo [11]: 3.19 ± 0.25 h
- total protein half-life in vivo [12]: 6.91 ± 3.5 h

Sequence: MFDFASYHRAATLADAINLLADNPQAKLLAGGTDVLIQLHHHNDRYRHIVDIHNLAELRGITLAEDGSLRIGSATTFTQLIEDPITQRHLPALCAAATSIAGPQIRNVATYGGNICNGATSADSATPTLIYDAKLEIHSPRGVRFVPINGFHTGPGKVSLEHDEILVAFHFPPQPKEHAGSAHFKYAMRDAMDISTIGCAAHCRLDNGNFSELRLAFGVAAPTPIRCQHAEQTAQNAPLNLQTLEAISESVLQDVAPRSSWRASKEFRLHLIQTMTKKVISEAVAAAGGKLQ
- total protein half-life in vivo [1]: 4.54 ± 1.2 h
- total protein half-life in vivo [2]: 2.5 ± 0.1 h
- total protein half-life in vivo [3]: 3.19 h
- total protein half-life in vivo [4]: 3.61 ± 0.29 h
- total protein half-life in vivo [5]: 2.379 ± 0.0096 h
- total protein half-life in vivo [6]: 2.25 ± 0.11 h
- total protein half-life in vivo [7]: 4.84 ± 0.91 h
- total protein half-life in vivo [8]: 6.07 ± 0.36 h
- total protein half-life in vivo [9]: 2.52 ± 0.089 h
- total protein half-life in vivo [10]: 4 h
- total protein half-life in vivo [11]: 4.56 ± 0.36 h
- total protein half-life in vivo [12]: 9.6 ± 1.6 h

Sequence: MRYDKELTENEMIRQKILQQLLEWIECNLEHPISIEDIAQKSGYSRRNIQLLFRNFMHVPLGEYIRKRRLCRAAILVRLTAKSMLDIALSLHFDSQQSFSREFKKLFGCSPREYRHRDYWDLANIFPSFLIRQQQKTECRLINFPETPIFGNSFKYDIEVSNKSPDEEVKLRRHHLARCMKNFKTDIYFVSTFEPSTKSVDLLTVETFAGTVCEYADMPKEWTTTRGLYDPTHVIWTQA
- total protein half-life in vivo [1]: > 8 h

Sequence: MRVTDFSFELPESLIAHYPMPERSSCRLLSLDGPTGALTHGTFTDLLDKLNPGDLLVFNNTRVIPARLFGRKASGGKIEVLVERMLDDKRILAHIRASKAPKPGAELLLGDDESINATMTARHGALFEVEFNDERSVLDILNSIGHMPLPPYIDRPDEDADRELYQTVYSEKPGAVAAPTAGLHFDEPLLEKLRAKGVEMAFVTLHVGAGTFQPVRVDTIEDHIMHSEYAEVPQDVVDAVLAAKARGNRVIAVGTTSVRSLESAAQAAKNDLIEPFFDDTQIFIYPGFQYKVVDALVTNFHLPESTLIMLVSAFAGYQHTMNAYKAAVEEKYRFFSYGDAMFITYNPQAINERVGE [P0A7F9]
- total protein half-life in vivo [1]: 4.09 ± 0.78 h
- total protein half-life in vivo [2]: 3.64 ± 0.2 h
- total protein half-life in vivo [3]: 4.44 ± 1.4 h
- total protein half-life in vivo [4]: 4.49 ± 0.24 h
- total protein half-life in vivo [5]: 3.41 ± 0.096 h
- total protein half-life in vivo [6]: 2.85 ± 0.04 h
- total protein half-life in vivo [7]: 4.82 ± 0.32 h
- total protein half-life in vivo [8]: 7.45 ± 0.19 h
- total protein half-life in vivo [9]: 3.66 ± 0.14 h
- total protein half-life in vivo [10]: 5.03 ± 0.34 h
- total protein half-life in vivo [11]: 5.46 ± 0.24 h
- total protein half-life in vivo [12]: 9.48 ± 0.17 h
